Measured values published in the supplement of paper PMC10219994.
± gives the standard deviation of the averaged measurements.

B1: library; a variant is named by its letters at N, in order (parent)
chain: GAGACCGCAACTGAAAAGTTGTGGNNNNNATAGTGAGTCGCTGCCTGCAAAGACACAACT

Variants of: B1
Test: ligation selection enrichment (abundance after / before one-round selection) (fold); higher = more template-directed ligation activity
Conditions: with T7Psub CACGGAUGCUAAUACGACUCACUAUA; MgCl2 25 mM; 42 °C; 4 h; pH 8.5
Description: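 Lib-N5 ligase ribozyme library: five randomized core nucleotides (including the GGA motif of N8-1) within the fixed N8-1 ribozyme flanks, transcribed by T7 RNA polymerase with a 5'-triphosphate. The library (0.75 uM) was reacted with substrate T7Psub (6 uM) in 50 mM EPPS pH 8.5 with 25 mM MgCl2 at 42 C for 4 h. Ligated products were PAGE-purified, reverse transcribed and MiSeq sequenced; enrichment = abundance after selection / abundance before selection, with two independent replicates. The full transcript is built from the printed template flanks.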

Variant	ligation selection enrichment
ACGGG	0.165 ± 0.012
ACGGT	0.169 ± 0.025
GGACA	0.256 ± 0.046
GGACG	0.725 ± 0.049
GGACC	0.232 ± 0.06
GGACT	0.703 ± 0.31
AGCTC	0.104 ± 0.0069
AGCTA	0.209 ± 0.011
AGCTG	0.198 ± 0.0052
AGCTT	0.149 ± 0.13
AGAGT	0.253 ± 0.024
AGAGA	0.338 ± 0.038
AGAGG	0.288 ± 0.045
AGAGC	0.196 ± 0.028
CGCCT	0.779 ± 0.21
CGCCA	0.146 ± 0.048
CGCCC	0.161 ± 0.004
CGCCG	0.43 ± 0.033
TGAAT	3.36 ± 0.95
TGAAG	0.271 ± 0.03
TGAAA	0.326 ± 0.022
TGAAC	0.25 ± 0.0069
TGCGC	0.217 ± 0.02
TGCGA	2.41 ± 0.15

Variant	ligation selection enrichment
TGCGG	0.221 ± 0.0095
TGCGT	0.168 ± 0.021
TGTGG	0.196 ± 0.025
TGTGA	0.629 ± 0.018
TGTGC	0.151 ± 0.015
TGTGT	0.102 ± 0.061
GGCCG	0.746 ± 0.042
GGCCT	0.408 ± 0.092
GGCCC	0.192 ± 0.0055
GGCCA	0.241 ± 0.083
AGTTC	0.176 ± 0.014
AGTTA	0.434 ± 0.065
GGGCC	0.243 ± 0.0042
GGGCA	0.298 ± 0.033
GGGCG	0.626 ± 0.07
GGGCT	0.765 ± 0.27
CCTGA	0.26 ± 0.038
CCTGC	0.128 ± 0.01
CCTGG	0.381 ± 0.061
CCTGT	0.138 ± 0.07
AGCGG	0.213 ± 0.012
AGCGA	2.74 ± 0.25
AGCGC	0.269 ± 0.043
AGCGT	0.191 ± 0.054

Variant	ligation selection enrichment
GGTCG	2.83 ± 0.25
GGTCT	0.471 ± 0.12
GGTCC	0.277 ± 0.02
GGTCA	0.9187 ± 0.002
GCTTT	0.4952 ± 0.0042
GCTTA	0.21 ± 0.0056
GCTTC	0.176 ± 0.038
GCTTG	0.955 ± 0.16
CGGAG	0.459 ± 0.021
CGGAT	57.6 ± 1.5
CGGAA	1.02 ± 0.075
CGGAC	3.77 ± 0.4
GCGGG	0.201 ± 0.0056
GCGGC	0.103 ± 0.017
GCGGT	0.186 ± 0.11
GGAGC	0.135 ± 0.022
GGAGT	0.165 ± 0.0095
GGAGG	0.371 ± 0.084
GGAGA	0.285 ± 0.02
GGTGC	0.226 ± 0.03
GGTGT	0.181 ± 0.16
GGTGG	0.374 ± 0.12
GGTGA	0.641 ± 0.064
ACTGA	0.286 ± 0.048

Variant	ligation selection enrichment
ACTGG	0.421 ± 0.0057
ACTGT	0.13 ± 0.074
ACTGC	0.137 ± 0.025
CGGGT	0.147 ± 0.034
CGGGG	0.165 ± 0.043
CGGGC	0.0737 ± 0.008
CGGGA	0.229 ± 0.025
CGTAA	0.311 ± 0.023
CGTAG	0.612 ± 0.083
CGTAT	4.81 ± 0.52
CGTAC	0.447 ± 0.0085
CGAGA	0.348 ± 0.084
CGAGT	1.09 ± 0.25
CGAGG	0.422 ± 0.029
CGAGC	0.246 ± 0.036
CGCGC	0.223 ± 0.025
CGCGA	1.1 ± 0.18
CGCGG	0.533 ± 0.12
CGCGT	0.237 ± 0.0082
TGTTC	0.147 ± 0.071
TGTTA	0.2185 ± 0.00099
CCTAG	0.356 ± 0.004
CCTAC	0.14 ± 0.03
CCTAT	0.149 ± 0.059

Variant	ligation selection enrichment
CCTAA	0.148 ± 0.0065
AGGCG	0.527 ± 0.12
AGGCC	0.21 ± 0.013
AGGCT	0.587 ± 0.3
AGGCA	0.255 ± 0.066
TGCTG	0.17 ± 0.017
TGCTC	0.117 ± 0.022
TGCTA	0.17 ± 0.012
TGCTT	0.0805 ± 0.021
GGTTC	0.216 ± 0.015
GGTTA	0.477 ± 0.095
GGGAC	30.7 ± 5.3
GGGAG	1.05 ± 0.051
GGGAA	6.049 ± 0.019
GGGAT	167 ± 32
TGGAC	24.7 ± 2.8
TGGAG	1.119 ± 0.0088
TGGAT	233 ± 62
TGGAA	5.31 ± 0.71
TCTTC	0.0955 ± 0.034
TCTTG	0.678 ± 0.067
TCTTT	0.193 ± 0.18
TCTTA	0.122 ± 0.024
CGTCT	0.522 ± 0.15

Variant	ligation selection enrichment
CGTCA	0.569 ± 0.038
CGTCC	0.192 ± 0.059
CGTCG	2.71 ± 0.46
CGACA	0.411 ± 0.093
CGACC	0.239 ± 0.071
CGACT	1.09 ± 0.25
CGACG	0.671 ± 0.15
AGACG	0.532 ± 0.039
AGACC	0.172 ± 0.011
AGACA	0.206 ± 0.011
AGACT	0.736 ± 0.21
GCTGG	0.462 ± 0.073
GCTGT	0.15 ± 0.068
GCTGC	0.1333 ± 0.00076
GCTGA	0.315 ± 0.015
AGCAA	0.342 ± 0.056
AGCAC	0.319 ± 0.037
AGCAG	0.325 ± 0.015
AGCAT	3.55 ± 0.68
AGAAC	0.267 ± 0.06
AGAAA	0.306 ± 0.043
AGAAG	0.4 ± 0.033
AGAAT	3.78 ± 0.51
CCGTA	0.213 ± 0.013

Variant	ligation selection enrichment
CCGTC	0.178 ± 0.022
CCGTT	0.149 ± 0.04
CCGTG	0.111 ± 0.0037
TGGCC	0.286 ± 0.041
TGGCT	0.75 ± 0.2
TGGCA	0.252 ± 0.025
TGGCG	0.345 ± 0.019
GGGTC	0.201 ± 0.006
GGGTA	0.445 ± 0.024
GGGTG	0.317 ± 0.033
GGGTT	0.318 ± 0.011
CGAAA	0.31 ± 0.015
CGAAG	0.4199 ± 0.0032
CGAAT	2.11 ± 0.22
CGAAC	0.246 ± 0.0029
GGCAC	0.395 ± 0.016
GGCAT	5.15 ± 1.1
GGCAG	0.55 ± 0.028
GGCAA	0.423 ± 0.11
TGCAG	0.216 ± 0.0033
TGCAA	0.289 ± 0.065
TGCAC	0.235 ± 0.059
TGCAT	3.27 ± 0.44
